Assay [1] addresses FBXW2 (UniProt Q9UKT8). Briefly: co-transfection, HA IP, immunoblot. The conditions noted are these: reference: wild type; sites S552. For orientation: Immunoblotting shows a protein as a band on a membrane.
In assay [2] the target is FBXW2 (UniProt Q9UKT8). Briefly: IP with FBXW2 antibody, immunoblot. The conditions noted are these: reference: wild type; sites S552.

The results in this text go back to paper PMC6437151.

Regarding β-catenin (from UniProt P35222) S552A, the “binding against the reference” value with FBXW2 [1] and in the assay with FBXW2 [2] was “lost” each time.
